Measurements as given in patent US20230189818A1, “RNA-BASED CONTROL OF BOTRYTIS” (priority 2021, published 2023).

B1: GS413: dsRNA trigger targeting B. cinerea NBP35 (XM_001552213.2); trigger SEQ ID NO 15, RNA 27, reverse complement 39 (nucleic acid, listed as Botrytis cinerea)
sense: GCAAAAUUCCAUUGUUGCUUUGUAAACAUCCAUCCUACGACUUUAUUAUCUCAUCGAUCAUCCCACAAUUUACAUUUUCCAUUUUACACUCAAUAAACAAUUGAAAAACAAUAUUCUGAGUUGGUCGCAGUAAAUCAUGGCUCCAUCUCUUGAGGAAAGGCCCGAUGCUGUGCAAGACGUCCUCUCAAAUCCUCUCAAAAAUGCUCCCAAACUUGUCGCCCCAGAACCUGAACAUUGUCCCGGUCCAGAAUCCGAAGCGGCGGGAAAGGCAGAUUCUUGCGCGGGCUGUCCAAACCAAGCCAUAUGCGCAUCCGCACCCAAAGGUCCCGAUCCAGAUAUUCCAGCUAUAACUGCACGUCUUGCUGGUAUCAAACAUAAAGUCUUAAUUCUGUCGGGGAAAGGUGGUGUAGGAAAAAGCACAUUUACAACUUUACUUGCACAUGCCUUCGCAACAAAUGAGGACAACACAGUAGGAAUCAU
antisense: AUGAUUCCUACUGUGUUGUCCUCAUUUGUUGCGAAGGCAUGUGCAAGUAAAGUUGUAAAUGUGCUUUUUCCUACACCACCUUUCCCCGACAGAAUUAAGACUUUAUGUUUGAUACCAGCAAGACGUGCAGUUAUAGCUGGAAUAUCUGGAUCGGGACCUUUGGGUGCGGAUGCGCAUAUGGCUUGGUUUGGACAGCCCGCGCAAGAAUCUGCCUUUCCCGCCGCUUCGGAUUCUGGACCGGGACAAUGUUCAGGUUCUGGGGCGACAAGUUUGGGAGCAUUUUUGAGAGGAUUUGAGAGGACGUCUUGCACAGCAUCGGGCCUUUCCUCAAGAGAUGGAGCCAUGAUUUACUGCGACCAACUCAGAAUAUUGUUUUUCAAUUGUUUAUUGAGUGUAAAAUGGAAAAUGUAAAUUGUGGGAUGAUCGAUGAGAUAAUAAAGUCGUAGGAUGGAUGUUUACAAAGCAACAAUGGAAUUUUGC
B2: GS659: dsRNA trigger targeting B. cinerea SDH (XM_001548300.2_200_pos_342); trigger SEQ ID NO 16, RNA 28, reverse complement 40 (nucleic acid, listed as Botrytis cinerea)
sense: UCAGAUGCGAACCAUGGCAUCAGUCGACAGCUCAGUACCUGAAAGUCCUACCGUUUCUCCAUCCCGUCCUGUCGAAUCUGCUUCCAAGACCUCCACUGUCAAGGAACCUGCUGCCGACUCGGAGUCUUUGAUCAAGACAUUCAACAUUUACAGAUGGAACCCAGAUGAGCCAACCAGCAAGCCCCGCAUGCAAUCUUACA
antisense: UGUAAGAUUGCAUGCGGGGCUUGCUGGUUGGCUCAUCUGGGUUCCAUCUGUAAAUGUUGAAUGUCUUGAUCAAAGACUCCGAGUCGGCAGCAGGUUCCUUGACAGUGGAGGUCUUGGAAGCAGAUUCGACAGGACGGGAUGGAGAAACGGUAGGACUUUCAGGUACUGAGCUGUCGACUGAUGCCAUGGUUCGCAUCUGA

Legend:
[1] = system: Botrytis cinerea isolate (B05.10); test: Detached leaf assay (tomato leaflets, lesion size); assay type: in vivo; conditions: five days post inoculation, vs untreated inoculated control
Protocol: Plant tissue. Tomato plants, variety Brandywine, were grown in the greenhouse for 3 weeks before harvesting the first true leaves for assays. Nodes 2-4 were prioritized for harvest and only lateral leaflets were used for assays. Leaflets of approximately the same size were used each week and were randomized among treatments. Detached leaflets were immediately brought into the lab for treatment and used within 4 hours of harvest. Detached leaflets were kept at 4° C. until they were treated and placed onto a 1% water agar medium for incubation.
Fungal culture. A Botrytis cinerea isolate (B05.10) was preserved on silica for long-term storage and pulled from these tubes stored at 4° C. for growth on a nutritive medium. Three pellets of silica were added to the center of a Malt Extract Agar (MEA) agar plate and grown at room temperature without parafilm/tape seal for ˜14 days, or until abundant conidia formation, before use.
Treatment of leaflets. Leaflets were treated 24 hours before inoculation and applied using an atomizer to get a fine mist of small droplets entirely covering the leaflet. Silwet L-77 was used as a spreader and added for a 0.03% final concentration (Silwet L-77 brand Phyto Technology Laboratories, S7777 Lot #14D7777001 F). The inoculated control was sprayed with the same volume of sterile DI water with Silwet L-77 in the absence of fungicide or experimental material. Leaflets were spray treated by laying them on a paper towel and holding the atomizer ˜6″ away from the leaflet for applications. Treated leaves were placed on a 1% water agar (10 g Bacto Agar, Difco, in 1 L deionized water, sterilized for 30 minutes at 121° C. and poured when reached a temp of 55° C. into 100×20 mm Petri dishes), with lids of the Petri dishes placed back on before putting Petri dishes under plastic bags to maintain humidity before inoculation the following day. Petri dishes of treated leaflets were left on the lab counter until the following day. Each treatment was replicated ten times with each replicate being a single treated leaflet with two inoculation sites, one on each side of the leaf midvein.
Inoculation. The conidial suspension was prepared by pouring a 7% white grape juice solution onto the culture plate, then scraping the plate with a sterile spatula to dislodge the spores and mycelia. The grape juice solution was prepared by mixing Welch's brand organic white grape juice into sterile deionized water. After dislodging the spores and mycelia of the culture, the suspension was poured through two layers of cheesecloth to remove fungal mycelia and catch the conidial suspension in a clean 50 mL conical tube. Approximately 3 uL of TWEEN 20 was added to conidial suspension to prevent sticking to conical tube. The spore concentration was determined using a Neubauer Improved hemocytometer and inoculum was diluted with more 7% grape juice until a spore concentration of 1×10^5 conidia/mL was reached. Inoculum was used to inoculate host tissue within 2 hours of preparation. Each tomato leaflet was inoculated twice, with inoculation sites placed one per side of the leaflet midvein. A 10 μL volume of spore suspension was placed at each inoculation site using a repeater pipette. Special care was taken not to touch the tip to leaflet surface to avoid contamination between treatments.
Incubation. Petri dishes were placed on lunch trays 6 plates high and moved to an incubator. The incubator was humidity controlled and holds at ˜75% relative humidity. The incubator was kept on 12/12 light/dark days and is set to a temperature of 23° C.
Rating. Measurements were taken at five days post inoculation (DPI). Each lesion that developed was measured using electronic calipers in 2 directions perpendicular to each other to help determine lesion diameter.
Data analysis. Data was analyzed using the SAS JMP statistical program (version 13.2.1) with comparisons made to the untreated, inoculated control. […]

Botrytis cinerea conidia = test: In vitro liquid-based assay (fungal biomass, 96-well plates, Cytation 5); assay type: cell-based; conditions: co-incubated with conidia for three days, vs untreated control
Protocol: Fungal culture. The Botrytis cinerea was plated each week the culture onto Malt Extract Agar (MEA) from long-term storage on silica stored at 4° C. Three pellets of silica were added to the center of a MEA agar plate and grown at room temperature without parafilm/tape seal for 10-14 days before use; a culture 12 days old was typically used.
Spore and media preparation. A pure culture of B. cinerea was flooded with a 0.01% Triton x-100 solution and conidia scraped free with a sterile hockey stick. The suspension was transferred to two, 1.5 mL centrifuge tubes and centrifuged at 8000 rpm for two minutes. The supernatant was discarded, pelleted spores washed twice with sterile water, then resuspended in sterile water. Conidia were quantified using a hemacytometer and diluted to a final concentration of 5000 conidia/mL stock. A stock solution of 1.25× minimal media was prepared for the assay setup using the components below. Once the stock solution was made, the pH was adjusted to 6.0 using NaOH or KOH, then filter sterilized through a 0.2 um filter tower and vacuum pump and stored at 4° C. The Kao & Michayluk Vitamins (100×) is a filter sterilized stock solution. The stock contains vitamins and amino acids as described by Kao & Michayluk. After filter sterilization, 20 mg of 4-Aminobenzoic acid in 100 ml of solution was added.
Experimental setup. Screening assays were setup in 96-well plates with conidia co-incubated with treatments (controls and dsRNAs) for three days before determining fungal biomass. Each treatment was replicated eight times within a single plate. In each well consisted of 12.5 μl of conidia suspension, 25 μl of the treatment, 12.5 μl of sterile deionized water, and 200 μl of minimal media. Each plate was covered with a breath right film and placed in the percival growth chamber at 23° C. on the shaking platform set to 120 RPM with 24-hour lighting. Plates were incubated for 72 hours before determining fungal growth.
Reading assay plate. Fungal biomass was determined by reading plates with the Cytation 5 machine. The program was set to compile 8 photo slices per well under brightfield microscopy with a 2.5× lens to measure biomass.
Data analysis. Analysis will automatically run on Cytation5 to determine final biomass.
Results are shown in Table 1B representing the average reduction in biomass vs. control for tested sequences across several runs described above.

[2] = system: Botrytis cinerea B05.10 isolate; test: Greenhouse whole plant assay (tomato 'Lanai', disease severity); assay type: in vivo; conditions: final rating day (rating #3)
Protocol: Plant Tissue: Tomato seedlings, variety “Lanai”, were seeded then thinned to one plant per pot in an 18 cell tray. […] Plants were grown at a 23° C./17° C. day/night temperature with 10 hours of light each 24-hour period. The RH was ambient and plants were fertilized two times a day every day except for Sunday when they received only water. Plants were grown using Fafard brand medium (70-80% sphagnum peat moss, perlite, vermiculite, dolomite limestone and watering agent) for the entire experiment.
Fungal culture. A Botrytis cinerea B05.10 isolate was maintained, and spores were harvested as previously described for detached leaf assays, except a grape juice additive was not used for inoculum preparation.
Treatment of plants. Whole tomato plants were treated ˜24 hours before inoculation using the spray booth. A 0.07% Silwet L-77 solution was used as a spreader and added for a 0.07% final volume in water (Silwet L-77 brand Phyto Technology Laboratories, S7777 Lot #14D7777001 F). The spray booth deck was set to 20″ above the plant canopy and a twinjet 8002EVS nozzle with 100 mesh filter placed into the spray mechanism. The spray boom was calibrated before treatment application with specs as follows: 50 GPA rate, 1.25 MPH speed, 6′ spray length, single pass, and at 45 psi to get a catch of 133 mL in 10 seconds (+/−6 mL). Each treatment was replicated ten times for each experimental run.
Inoculation. Plants were inoculated using a mist-o-matic applicator, which is pressurized by manual pumping. The inoculum suspension was poured into the mist-o-matic immediately before inoculation in the GH space. The containers were only filled half-way and inoculum was applied evenly to the surface of all foliage with even coverage.
Incubation. Plants were incubated inside of a 40″ tall humidity chamber supported by PVC pipe and covered in 3M translucent plastic. A humidifier was inside the chamber and set to low and continuous humidity (filled with tap water). The temperature was D:24-20° C./N:20-18° C. with 15 hours of light, of which 9 hours was with supplemental lighting. RH was ambient and watering occurred everyday by sub-irrigation with the bench being flooded for 10 minutes before draining.
Rating. Tomato plants were rated three times during the two-week experiment with rating starting four days post-inoculation and occurring every three to four days after the initial rating date. Plants were rated for the number of lesions and disease severity, which is the percentage of the plant that was symptomatic including necrotic lesions, pathogen sporulation, and chlorosis.
Data analysis. […] Percent disease severity (%DS) was determined by the percent area of the tomato foliage with symptoms including lesions, chlorosis, necrosis, and wilting. Disease severity was rated at three dates (Rating #) over the 12-day test period. Treatments were compared to the untreated, inoculated control and a chemical standard. Statistical analysis was done using SAS JMP version 13.2.1 with treatments compared to the untreated, inoculated control and a chemical standard using Tukey-Kramer and student's T tests.

Molecule	Average % Reduction in Lesion Size ([1]; 30 ppm) [%]	Average % Reduction in Lesion Size ([1]; 50 ppm) [%]	Average % Reduction in Biomass (Botrytis cinerea conidia; 25 ppm dsRNA) [%]	Average % Reduction in Biomass (Botrytis cinerea conidia; 150 ppm dsRNA) [%]	% control ([2]; 8 g ai/ha, two runs, three-week-old 'Lanai' tomato plant) [%]	% control ([2]; 25 g ai/ha, two runs, three-week-old 'Lanai' tomato plant) [%]	% control ([2]; 25 g ai/ha, three runs, four-week-old 'Lanai' tomato plant) [%]
B1	35.58	20.66	14	53	34	26	–
B2	21.31	19.19	12	28	–	–	29
